Measured values as given in paper doi:10.1101/2024.05.10.593562 (bioRxiv, 2024).

Molecular target: HDAC1-FLAG (UniProt Q13547 1-482)
Experiment: AlphaScreen or HTRF

HDAC1-FLAG, sequence (Q13547 whole entry): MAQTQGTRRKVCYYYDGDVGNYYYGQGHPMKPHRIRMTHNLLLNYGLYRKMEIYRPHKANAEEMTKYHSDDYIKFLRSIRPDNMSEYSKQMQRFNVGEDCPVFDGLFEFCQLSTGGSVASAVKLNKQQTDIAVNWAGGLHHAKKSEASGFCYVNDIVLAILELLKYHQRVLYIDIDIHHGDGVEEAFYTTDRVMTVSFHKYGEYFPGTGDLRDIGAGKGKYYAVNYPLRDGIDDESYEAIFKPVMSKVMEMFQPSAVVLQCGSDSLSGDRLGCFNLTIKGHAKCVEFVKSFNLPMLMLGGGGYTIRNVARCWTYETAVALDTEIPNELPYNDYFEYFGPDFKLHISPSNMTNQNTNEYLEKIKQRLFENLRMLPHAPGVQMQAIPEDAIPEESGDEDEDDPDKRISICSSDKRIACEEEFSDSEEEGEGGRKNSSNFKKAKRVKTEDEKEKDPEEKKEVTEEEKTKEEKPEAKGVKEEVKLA

B1: GST-Rb 380-785 (domain or fragment)
chain: NTIQQLMMILNSASDQPSENLISYFNNCTVNPKESILKRVKDIGYIFKEKFAKAVGQGCVEIGSQRYKLGVRLYYRVMESMLKSEEERLSIQNFSKLLNDNIFHMSLLACALEVVMATYSRSTSQNLDSGTDLSFPWILNVLNLKAFDFYKVIESFIKAEGNLTREMIKHLERCEHRIMESLAWLSDSPLFDLIKQSKDREGPTDHLESACPLNLPLQNNHTAADMYLSPVRSPKKKGSTTRVNSTANAETQATSAFQTQKPLKSTSLSLFYKKVYRLAYLRLNTLCERLLSEHPELEHIIWTLFQHTLQNEYELMRDRHLDQIMMCSMYGICKVKNIDLKFKIIVTAYKDLPHAVQETFKRVLIKEEEYDSIIVFYNSVFMQRLKTNILQYASTRPPTLSPIPHI
B1: binds.
